Assay results as given in the supplement of paper PMC10567573.

B1: ZER1 (parent)
chain: PILRLLPQGISPVSQHWATWALYN

Variants of: B1
Assay: protein stability index of a GFP-peptide fusion (GPS, HEK-293T) (PSI 1-6); higher = more stable
Conditions: c terminus: a fixed tail appended
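Further: lentivirally expressed fusions sorted by FACS into six bins by GFP to DsRed ratio, PSI derived from sequencing read proportions per bin multiplied by bin number.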

Q: For PILRLLPQGISPVSQHWAAWALYN [T19A], which protein stability index is on record?
A: 2.69

Q: With PILRLLPQGISPVSQHWAPWALYN [T19P] as the variant, how does the protein stability index read?
A: 2.12

Q: Which protein stability index does the source give for PILRLLPQGISPVSQHWAGWALYN [T19G] here?
A: 1.97

Q: With PILRLLPQGISPVSQHWAKWALYN [T19K] as the variant, how does the protein stability index read?
A: 2.3

Q: Which protein stability index does the source give for PILRLLPQGISPVSQHWADWALYN [T19D] here?
A: 2.33

Q: With PILRLLPQGISPVSQHWATWALYL [N24L] as the variant, how does the protein stability index read?
A: 4.12

Q: With PILRLLPQGISPVSQHWATWALYM [N24M] as the variant, how does the protein stability index read?
A: 3.8

Q: Which protein stability index does the source give for PILRLLPQGISPVSQHWATWALYH [N24H] here?
A: 2.93

Q: Which protein stability index does the source give for PILRLLPQGISPVSQHWATWALYI [N24I] here?
A: 3.12

Q: Which protein stability index does the source give for PILRLLPQGISPVSQHWATWALYD [N24D] here?
A: 3.49

Q: With PILRLLPQGISPVSQHWATWALYA [N24A] as the variant, how does the protein stability index read?
A: 2.09

Q: Which protein stability index does the source give for PILRLLPFGISPVSQHWATWALYN [Q8F] here?
A: 2.58

Q: With PILRLLPYGISPVSQHWATWALYN [Q8Y] as the variant, how does the protein stability index read?
A: 2.12

Q: With PILRLLPKGISPVSQHWATWALYN [Q8K] as the variant, how does the protein stability index read?
A: 2.29

Q: Which protein stability index does the source give for PILRLLPRGISPVSQHWATWALYN [Q8R] here?
A: 3.32

Q: For PILRLLPHGISPVSQHWATWALYN [Q8H], which protein stability index is on record?
A: 1.5

Q: For PILRLLPWGISPVSQHWATWALYN [Q8W], which protein stability index is on record?
A: 3.15

Q: With PILRLYPQGISPVSQHWATWALYN [L6Y] as the variant, how does the protein stability index read?
A: 2.65

Q: With PILRLLPQGIVPVSQHWATWALYN [S11V] as the variant, how does the protein stability index read?
A: 2.22

Q: With PILRLLPQGIWPVSQHWATWALYN [S11W] as the variant, how does the protein stability index read?
A: 1.59

Q: For PILRLLPQGILPVSQHWATWALYN [S11L], which protein stability index is on record?
A: 2.53

Q: For PILRLLPQGIIPVSQHWATWALYN [S11I], which protein stability index is on record?
A: 2.53

Q: Which protein stability index does the source give for PILRLLPQGIMPVSQHWATWALYN [S11M] here?
A: 1.99

Q: With PILRLLPQGIAPVSQHWATWALYN [S11A] as the variant, how does the protein stability index read?
A: 2.83

Q: Which protein stability index does the source give for PILRLLPQGIGPVSQHWATWALYN [S11G] here?
A: 2.17

Q: With PILRLLPQGICPVSQHWATWALYN [S11C] as the variant, how does the protein stability index read?
A: 3.31

Q: For PILRLLPQGIDPVSQHWATWALYN [S11D], which protein stability index is on record?
A: 3.26

Q: For PILRLLPQGIRPVSQHWATWALYN [S11R], which protein stability index is on record?
A: 3.06

Q: With PILRLLPQGIPPVSQHWATWALYN [S11P] as the variant, how does the protein stability index read?
A: 1.77

Q: Which protein stability index does the source give for PILRLLPQGIHPVSQHWATWALYN [S11H] here?
A: 2.03

Q: For PILRLLPQGIEPVSQHWATWALYN [S11E], which protein stability index is on record?
A: 3.05

Q: Which protein stability index does the source give for PILRLLWQGISPVSQHWATWALYN [P7W] here?
A: 1.97

Q: For PILRLLRQGISPVSQHWATWALYN [P7R], which protein stability index is on record?
A: 1.55

Q: With PILRLLHQGISPVSQHWATWALYN [P7H] as the variant, how does the protein stability index read?
A: 5.21

Q: Which protein stability index does the source give for PILRLLCQGISPVSQHWATWALYN [P7C] here?
A: 2.12

Q: For PILRLLEQGISPVSQHWATWALYN [P7E], which protein stability index is on record?
A: 3.19

Q: For PILRLLVQGISPVSQHWATWALYN [P7V], which protein stability index is on record?
A: 1.65

Q: Which protein stability index does the source give for PILRLLTQGISPVSQHWATWALYN [P7T] here?
A: 3.41

Q: Which protein stability index does the source give for PILRLLAQGISPVSQHWATWALYN [P7A] here?
A: 2.22

Q: Which protein stability index does the source give for PILRLLDQGISPVSQHWATWALYN [P7D] here?
A: 2.52

Q: Which protein stability index does the source give for PILRLLFQGISPVSQHWATWALYN [P7F] here?
A: 2.8

Q: For PILRLLMQGISPVSQHWATWALYN [P7M], which protein stability index is on record?
A: 3.56

Q: Which protein stability index does the source give for PILRLLPQFISPVSQHWATWALYN [G9F] here?
A: 2.78

Q: With PILRLLPQIISPVSQHWATWALYN [G9I] as the variant, how does the protein stability index read?
A: 2.95

Q: For PILRLLPQNISPVSQHWATWALYN [G9N], which protein stability index is on record?
A: 2.01

Q: Which protein stability index does the source give for PILRLLPQKISPVSQHWATWALYN [G9K] here?
A: 3.57

Q: Which protein stability index does the source give for PILRLLPQSISPVSQHWATWALYN [G9S] here?
A: 2.01

Q: For PILRLLPQQISPVSQHWATWALYN [G9Q], which protein stability index is on record?
A: 1.97

Q: For PILRLLPQTISPVSQHWATWALYN [G9T], which protein stability index is on record?
A: 2.8

Q: For PILRLLPQHISPVSQHWATWALYN [G9H], which protein stability index is on record?
A: 5.34

Q: With PILRLLPQGISPVSQHWATWASYN [L22S] as the variant, how does the protein stability index read?
A: 1.71

Q: Which protein stability index does the source give for PILRLLPQGISPVSQHWATWAKYN [L22K] here?
A: 1.52

Q: For PILRLLPQGISPVSQHWATWANYN [L22N], which protein stability index is on record?
A: 1.88

Q: With PILRLLPQGISPVSQHWATWAGYN [L22G] as the variant, how does the protein stability index read?
A: 2.3

Q: Which protein stability index does the source give for PILRLLPQGISPVSQHWATWAQYN [L22Q] here?
A: 3.18

Q: With PILRLLPQGISPVSQHWATWARYN [L22R] as the variant, how does the protein stability index read?
A: 3.48

Q: Which protein stability index does the source give for PILRLLPQGISPVSQHWATWAYYN [L22Y] here?
A: 2.83

Q: Which protein stability index does the source give for PILRLLPQGISPVSQHWATWADYN [L22D] here?
A: 2.02

Q: Which protein stability index does the source give for PILRLLPQGISPVSQHWATWAPYN [L22P] here?
A: 1.57

Q: With PILRLLPQGISPVSQHWATWAAYN [L22A] as the variant, how does the protein stability index read?
A: 3.32

Q: Which protein stability index does the source give for PILRLLPQGISPVSQHWATWAHYN [L22H] here?
A: 1.58

Q: With PILRLLPQGISPVSQHWATWAWYN [L22W] as the variant, how does the protein stability index read?
A: 4.02

Q: Which protein stability index does the source give for PILRLLPQGISPVSQHWATWAEYN [L22E] here?
A: 1.58

Q: For PILRLLPQGISPVSQHWATSALYN [W20S], which protein stability index is on record?
A: 2.41

Q: With PILRLLPQGISPVSQHWATCALYN [W20C] as the variant, how does the protein stability index read?
A: 3.55

Q: For PILRLLPQGISPVSQHWATIALYN [W20I], which protein stability index is on record?
A: 4.55

Q: For PILRLLPQGISPVSQHWATDALYN [W20D], which protein stability index is on record?
A: 2.6

Q: With PILRLLPQGISPVSQHWATYALYN [W20Y] as the variant, how does the protein stability index read?
A: 2.5

Q: Which protein stability index does the source give for PILRLLPQGISPVSQHWATNALYN [W20N] here?
A: 2.09

Q: With PILRLLPQGISPVSQHWATPALYN [W20P] as the variant, how does the protein stability index read?
A: 2.79

Q: With PILRLLPQGISPVSQHWATGALYN [W20G] as the variant, how does the protein stability index read?
A: 1.37

Q: For PILRLLPQGISPVSQHWATRALYN [W20R], which protein stability index is on record?
A: 1.64

Q: With PILRLLPQGISPVSQHWATTALYN [W20T] as the variant, how does the protein stability index read?
A: 3.72

Q: With PILRLLPQGISPVSQHWATEALYN [W20E] as the variant, how does the protein stability index read?
A: 1.58

Q: For PILRLLPQGISPVSQHWATMALYN [W20M], which protein stability index is on record?
A: 3.46

Q: For PILRLLPQGISPVSQHWATKALYN [W20K], which protein stability index is on record?
A: 1.28

Q: Which protein stability index does the source give for PILRLLPQGISPVSQHWATQALYN [W20Q] here?
A: 1.47

Q: Which protein stability index does the source give for PILRLLPQGISPVSQHWATFALYN [W20F] here?
A: 3.5

Q: Which protein stability index does the source give for PILRLLPQGISPVSQHWATHALYN [W20H] here?
A: 2.61

Q: For PILRLLPQGISPVSQHWATAALYN [W20A], which protein stability index is on record?
A: 2.62

Q: Which protein stability index does the source give for PILRLLPQGISPVSQHWRTWALYN [A18R] here?
A: 2.58

Q: Which protein stability index does the source give for PILRLLPQGISPVSQHWGTWALYN [A18G] here?
A: 2.24

Q: For PILRLLPQGISPVSQHWMTWALYN [A18M], which protein stability index is on record?
A: 2.28

Q: With PILRLLPQGISPVSQHWITWALYN [A18I] as the variant, how does the protein stability index read?
A: 1.83

Q: With PILRLLPQGISPVSQHWTTWALYN [A18T] as the variant, how does the protein stability index read?
A: 3.18

Q: With PILRLLPQGISPVSQHWNTWALYN [A18N] as the variant, how does the protein stability index read?
A: 3.82

Q: Which protein stability index does the source give for PILRLLPQGISPVSQHWETWALYN [A18E] here?
A: 2.82

Q: Which protein stability index does the source give for PILRLLPQGISPVSQHWHTWALYN [A18H] here?
A: 2.94

Q: For PILRLLPQGISPVSQHWCTWALYN [A18C], which protein stability index is on record?
A: 1.74

Q: For PILRLLPQGISPVSQHWYTWALYN [A18Y], which protein stability index is on record?
A: 4.06

Q: With PILRLLPQGISPVSQHWKTWALYN [A18K] as the variant, how does the protein stability index read?
A: 2.89

Q: Which protein stability index does the source give for PILRLLPQGISPVSQHWLTWALYN [A18L] here?
A: 2.27

Q: With PILRLLPQGISPVYQHWATWALYN [S14Y] as the variant, how does the protein stability index read?
A: 2.6

Q: For PILRLLPQGISPVKQHWATWALYN [S14K], which protein stability index is on record?
A: 1.43
